Numbering of substitutions follows the chain as printed. Each block holds one binder with its values, some of them ahead of it.
Assays:
[1] = molecular target: T1, recombinant human MICA extracellular domain recombinant-His protein (MICA*001 allele) (human, UniProt Q29983 24-297); test: SPR (Biacore T100), monovalent affinity
T1 construct: also called MICA*001-His; MICA-His; not shown: His tag
T1 sequence: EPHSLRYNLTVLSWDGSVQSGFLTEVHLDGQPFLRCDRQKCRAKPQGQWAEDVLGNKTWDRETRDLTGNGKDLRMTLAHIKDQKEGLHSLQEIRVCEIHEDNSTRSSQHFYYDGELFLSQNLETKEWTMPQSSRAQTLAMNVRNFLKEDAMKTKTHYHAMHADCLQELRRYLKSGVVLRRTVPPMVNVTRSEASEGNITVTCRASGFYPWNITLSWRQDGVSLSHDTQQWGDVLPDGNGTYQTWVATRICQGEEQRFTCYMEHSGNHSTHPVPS

[2] = molecular target: T1, recombinant human MICA extracellular …; test: SPR (Biacore T100), bivalent mean KD at pH 7.4, MICA*001-His on NTA chip, antibody injected
Protocol: The binding of 6E4, 20C6 and 16A8 to either recombinant human MICA extracellular domain recombinant protein monomers or dimers (MICA*019 allele-Fc protein or MICA*001-His protein) as well as other NKG2D ligands MICB and ULBP1-2 was analyzed by Surface Plasmon Resonance (SPR) using a Biacore T100 apparatus to obtain monovalent and bivalent affinity, respectively.
Each cycle consisted of three steps. Firstly, the NTA chip was activated with NiSO₄ (500 mM). Secondly, the MICA-His protein (diluted to 10 μg/ml in running buffer HBS-P) was immobilized onto the surface via a 2 min injection at a constant flowrate of 10 μL/min. Then the antibody was injected over the immobilized antigen for 2 min at the flow rate of 40 μl/min. Subsequently, the running buffer was injected for 5 min at 40 μl/min for antibody dissociation analysis. After each cycle, the surface was regenerated by a 60s injection of 0.5M EDTA, pH 8.3 to completely strip the surface of the remaining antigen and antibody. The resulting sensorgrams were analyzed by global fitting using the appropriate model.

[3] = molecular target: T2, MICB-Fc (R&D Systems 1599-MB) (human, UniProt Q29980 23-298, limits assumed); test: SPR, antibody injected over immobilized MICB-Fc
T2 construct: Bought; also called human MICB-Fc; not shown: Fc of the bought fusion protein
T2 sequence: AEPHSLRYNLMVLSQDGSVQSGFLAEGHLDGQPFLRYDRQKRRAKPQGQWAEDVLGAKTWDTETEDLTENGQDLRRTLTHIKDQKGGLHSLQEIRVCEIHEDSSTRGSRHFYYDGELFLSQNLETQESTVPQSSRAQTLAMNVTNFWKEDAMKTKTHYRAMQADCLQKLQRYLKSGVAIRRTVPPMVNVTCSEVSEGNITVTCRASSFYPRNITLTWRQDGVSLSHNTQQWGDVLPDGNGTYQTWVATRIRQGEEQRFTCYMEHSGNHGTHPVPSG
Protocol: For cross-binding study, the human ULBP-1-Fc (R&D systems*), MICB-Fc (*), ULBP-2-Fc (*) and ULBP-3-Fc (*) recombinant proteins were covalently immobilized respectively on the flow cell one to four of a CM5 sensorchip. Anti-MICA antibodies (at a constant concentration of 10 μg/ml) were injected for 2 minutes at a flow rate of 10 μl/min onto the four flow cells in parallel. After each cycle, Sensorchip was regenerated by a five second injection of appropriate regeneration buffer.

[4] = molecular target: T3, MICA*001 expressed at the cell surface (human, UniProt Q29983 24-297); test: flow cytometry on C1R transfectant cells, 4-parameter logistic fit
T3 construct: the protein on cells also has its transmembrane and cytoplasmic parts (Genbank AAB41060); also called C1R-MICA*001; C1R-MICA*01
T3 sequence: T1 sequence
Protocol: (§1) The binding of antibodies obtained from the first, second and third immunization series (including CHG1-M-MIA-19E9, CHG1-M-MIA-9C10, CHG1-M-MIA-6E4, CHG1-M-MIA-20C6, CHG1-M-MIA-16A8, CHG1-M-MIA-12A10, CHG1-M-MIA-10A7, CHG1-M-MIA-18E8, CHG1-M-MIA-10F3, CHG1-M-MIA-15F9 and CHG1-M-MIA-14B4) were tested for binding to MICA-expressing CR1 transfectant cells C1R-MICA*001, C1R-MICA*004, C1R-MICA*007 and C1R-MICA*008 (Pr. A. Steinle, Eberhard-Karls University Tuebingen, Germany) described in Salih et al. (2003) Blood 102(4): […]. Binding was analyzed by flow cytometry.
(§2) Cells were harvested and stained in PBS 1×/BSA 0.2%/EDTA 2 mM buffer during 30 minutes at 4° C. using a dose-range of the anti-MICA mAbs. After two washes in staining buffer, cells were stained for 30 min at 4° C. with mouse anti-human IgG1-PE monoclonal antibodies (1/11). After two washes, stainings were acquired on a BD FACS Canto II and analyzed using the FlowJo software.
(§3) Antibodies CHG1-M-MIA-19E9, CHG1-M-MIA-9C10, CHG1-M-MIA-6E4, CHG1-M-MIA-20C6, CHG1-M-MIA-12A10, CHG1-M-MIA-10A7, CHG1-M-MIA-18E8, CHG1-M-MIA-10F3, and CHG1-M-MIA-15F9 bound to each of the C1R-MICA*001, C1R-MICA*004, C1R-MICA*007 and C1R-MICA*008 cells (see FIG. 1A for antibodies CHG1-M-MIA-19E9, CHG1-M-MIA-9C10, CHG1-M-MIA-6E4, CHG1-M-MIA-20C6, CHG1-M-MIA-12A10, CHG1-M-MIA-10F3, and FIG. 1B for antibodies, CHG1-M-MIA-18E8, CHG1-M-MIA-15F9, CHG1-M-MIA-10A7). […] EC50 values are shown in Table C in μg/ml (calculated using a 4-parameter logistic fit).

[5] = molecular target: T4, MICA*004 expressed at the cell surface (human, UniProt Q29983 24-297); test: as above
T4 construct: also called C1R-MICA*004; C1R-MICA*04
T4 chain: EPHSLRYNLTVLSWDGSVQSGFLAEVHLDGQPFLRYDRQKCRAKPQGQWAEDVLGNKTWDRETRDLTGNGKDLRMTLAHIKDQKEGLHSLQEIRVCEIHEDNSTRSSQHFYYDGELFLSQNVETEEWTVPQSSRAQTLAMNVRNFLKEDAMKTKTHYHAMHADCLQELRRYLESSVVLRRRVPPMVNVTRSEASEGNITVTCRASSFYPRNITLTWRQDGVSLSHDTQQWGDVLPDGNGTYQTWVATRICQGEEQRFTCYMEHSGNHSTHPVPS
Protocol: as §1, §2, §3

[6] = molecular target: T5, MICA*007 expressed at the cell surface (human, UniProt Q29983 24-297); test: as above
T5 construct: also called C1R-MICA*007; C1R-MICA*07
T5 chain: T1 sequence with T24A, K125E
Protocol: as §1, §2, §3

[7] = molecular target: T6, MICA*008 expressed at the cell surface (human, UniProt Q29983 24-297); test: as above
T6 construct: also called C1R-MICA*008; C1R-MICA*08
T6 chain: T4 chain with V122L, S175G, R181T, T213I, Q251R
Protocol: as §1, §2, §3

[8] = molecular target: T7, MICA*001-BirA (human, UniProt Q29983 24-297); test: SPR single cycle kinetics, monovalent mean KD at pH 7.4, antibody captured on Protein-G chip, MICA-BirA injected
T7 construct: also called MICA-BirA; MICA*01-BirA; not shown: BirA tag
T7 sequence: T1 sequence
Protocol: For monovalent affinity measurement, chimeric anti-MICA antibodies were captured onto a Protein-G chip.
Affinities were determined using single cycle kinetics (SCK). SCK cycles were as follows: Successive 120s injections at 30 μl/min of 5 serial dilutions (0.01 to 100 nM) of MICA-His or MICA-BirA in ascending order (or of buffer for the blank injections to be subtracted during the analysis). After the last concentration is injected, complex is left to dissociate for 600s before regeneration by a 10s injection of appropriate regeneration buffer at 40 μl/min. After the regeneration, chip is left to stabilise for 60s in running buffer. Curves are fitted using Biacore T100 Evaluation software.

Kd [1]: 2 nM
Kd [2]: 0.031 nM
B1: biotin-conjugated mouse antibody 6E4 (antibody, V domains shown)
VH: EVQLVESGGALVKPGGSLKLSCAASGFTFSYYAMSWVRQTPEKRLEWVATISRGGNYIYYTDSVKGRFTISRDNAKNTLYLQMTSLRSEDTAMFYCASISDYDGAWLAYWGQGTLVTV
VL: DVLMTQTPLSLPVSLGDQASISCRSSQSIIHTNGNTYLEWYLQKPGQSPKLLIYKISNRFSGVPDRFSGSGSGTDFTLKISRVEAEDLGVYYCFQGSHVPWTFGGGTKLEIK
notes: also called 6E4 (mouse)

Kd [1]: 6.5 nM
Kd [2]: 0.33 nM
B2: biotin-conjugated mouse antibody 20C6 (antibody, V domains shown)
VH: QITLKESGPGILKPSQTLSLTCSFSGFSLSTSGMGVGWIRQPSGKGLEWLAHIWWDDDKYYNPSLKSQLTISKDTSRNQVFLRITSVDTADTATYYCARRTQGYFDYWGQGTTLTVSS
VL: DIVMTQSPATLSVTPGDRVSLSCRASQSISDYLHWYQQKSHESPRLLIKYASQSISGIPSRFSGSGSGSDFTLSINSVEPEDVGVYYCQNGHSFPWTFGGGTKLEIK
notes: also called 20C6 (mouse)

binding result [3]: no binding (tested: 10 µg/ml)
EC50 [4]: 1.3 µg/mL
EC50 [5]: 0.26 µg/mL
EC50 [6]: 1.43 µg/mL
EC50 [7]: 0.25 µg/mL
Kd [8]: 53 nM
B3: CHG1-M-MIA-12A10 (antibody, human IgG1, V domains shown)
VH: QVQLQQSGADLVRPGASVRLSCRASGYSFTNYWMNWVKQRPGQGLEWIGMIHPSDSETRLNQKFKDKATLTVDKSSNTAYMQLSSPTSEDSAIYYCARDDFFTMDYWGQGTSVTVSS
VL: DILLTQSPAILSVSPGERVSFSCRASQNIVTSIHWYQQSTNGSPRLLIKYASESISGIPSRFSGSGSGTDFTLTINSVESEDVADYYCQQSNIWPLTFGAGTKLELK
notes: the VH entry ends with ASTK

binding result [3]: no binding (tested: 10 µg/ml)
EC50 [4]: 12.7 µg/mL
EC50 [5]: 0.24 µg/mL
EC50 [7]: 0.3 µg/mL
B4: CHG1-M-MIA-14B4 (antibody, V domains shown)
VH: QVQLQQPGAELVRPGASVKLSCKASGYSFTSYWMNWMKQRPGQGLEWIGMIHPSDSETRLNQKFKDKATLTVDKSSSTAYMQLNSPTSEDSAVYYCAREMGPYTLDYWGQGTSVTVSS
VL: B3 VL with E17A, V30D, S39R, T74S, V83I, I93Y
notes: the VH entry ends with ASTK
